Broadly, the EC50 is the concentration needed to bring the measured effect to its halfway point. As a reminder, the kon is the rate constant with which the complex forms.

One assay deals with T1, 人PD-1蛋白(Acro PD1-HB2F2) (human, UniProt Q15116 25-167, limits assumed).
T1 construct: Bought protein coated on the ELISA plate; also called 抗原PD-1蛋白; human PD-1 protein
The assay is described as follows: ELISA, human PD-1 protein coated at 20 ng/mL, antibody titrated from 1000 ng/mL. (An ELISA detects its analyte on a solid surface through an enzyme-linked reagent.)

Assay [1] addresses T2, PD-1蛋白 (冻干, fortebio assay) (UniProt Q15116 25-167, limits assumed).
T2 construct: also called 抗原PD-1蛋白; 冻干PD-1蛋白
The assay is described as follows: BLI (Octet K2), antibody captured on Protein A sensor, PD-1 protein as analyte from 50 nM, 2-fold dilutions. On the technique in general: In BLI a coated tip is dipped into the sample, and binding shifts an interference pattern.

T1 sequence (Q15116 25-167 limits assumed): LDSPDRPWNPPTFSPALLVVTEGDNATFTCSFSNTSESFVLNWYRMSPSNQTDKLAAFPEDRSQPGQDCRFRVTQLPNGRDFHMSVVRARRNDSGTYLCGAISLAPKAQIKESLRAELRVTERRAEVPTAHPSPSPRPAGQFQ
T2 sequence (Q15116 25-167 limits assumed): as above

B1: 抗PD-1纳米抗体 N7 (Fc fusion)
chain: QVQLQESGGGLVQPGGSLRLSCAASGSTYLRFSMGWFRQVPGKEREGVAAIGGDGRTSYADSVKGRFTISKDNSKNTLYLDMNSLRAEDTAVYYCAAAVLLDGSFSLLAPLVPYKYDYWGQGTLVTVSSERKSSVECPPCPAPEFLGGPSVFLFPPKPKDTLMISRTPEVTCVVVDVSQEDPEVQFNWYVDGVEVHNAKTKPREEQFNSTYRVVSVLTVLHQDWLNGKEYKCKVSNKGLPSSIEKTISKAKGQPREPQVYTLPPSQEEMTKNQVSLTCLVKGFYPSDIAVEWESNGQPENNYKTTPPVLDSDGSFFLYSRLTVDKSRWQEGNVFSCSVMHEALHNHYTQKSLSLSLGK
In the assay with 人PD-1蛋白(Acro PD1-HB2F2), B1 returned an EC50 of 9.98 ng/mL. Besides, the kon in assay [1] was determined as 274000 M⁻¹ s⁻¹.

(Values after CN114984207A (ZHEJIANG TERUISI PHARMACEUTICAL INC, dated 2022).)
